Key:
MBP-ORE1 = target: T1, MBP-ORE1 (Arabidopsis thaliana, UniProt Q9FKA0 1-285); test: EMSA; LightShift Chemiluminescent EMSA kit binding buffer (composition, pH, temperature not given); 400 ng protein, 12.5 fmol 5'-biotin probe, 1 ug poly(dI-dC), 15 min; settings: protein: recombinant; tags: N-terminal MBP (pMAL-c5g); chain copies: 2; label: 5'-biotin; blunt
T1 sequence: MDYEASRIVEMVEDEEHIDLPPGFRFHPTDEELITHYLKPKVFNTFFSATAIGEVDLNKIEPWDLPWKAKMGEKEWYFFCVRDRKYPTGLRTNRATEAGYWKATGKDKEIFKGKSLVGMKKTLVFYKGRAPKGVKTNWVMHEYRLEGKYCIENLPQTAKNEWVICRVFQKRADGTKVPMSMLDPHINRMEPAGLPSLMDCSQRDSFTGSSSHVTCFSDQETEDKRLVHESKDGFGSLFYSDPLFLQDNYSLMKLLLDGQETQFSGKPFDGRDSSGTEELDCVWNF

MBP-N-EIN3 [1] = target: T2, MBP-N-EIN3 (Arabidopsis thaliana, UniProt O24606 1-314); test: as above; settings: protein: recombinant; tags: N-terminal MBP (pMAL-c5g); chain copies: 2; label: 5'-biotin; blunt
T2 sequence: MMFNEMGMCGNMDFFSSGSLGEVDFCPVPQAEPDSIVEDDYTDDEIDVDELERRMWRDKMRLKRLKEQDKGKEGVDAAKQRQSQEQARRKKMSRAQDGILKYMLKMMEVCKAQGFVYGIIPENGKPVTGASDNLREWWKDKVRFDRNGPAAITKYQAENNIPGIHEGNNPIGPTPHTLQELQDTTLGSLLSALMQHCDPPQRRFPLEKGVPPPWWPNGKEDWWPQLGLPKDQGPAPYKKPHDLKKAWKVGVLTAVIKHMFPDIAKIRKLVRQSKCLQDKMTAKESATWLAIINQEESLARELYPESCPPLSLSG

MBP-N-EIN3 [2] = target: T2, MBP-N-EIN3; test: competition; unlabeled 800-fold excess vs NYC1-EBS; LightShift Chemiluminescent EMSA kit binding buffer (composition, pH, temperature not given); 400 ng protein, 12.5 fmol 5'-biotin probe, 1 ug poly(dI-dC), 15 min; settings: protein: recombinant; tags: N-terminal MBP (pMAL-c5g); chain copies: 2; blunt
MBP-N-EIN3 [3] = target: T2, MBP-N-EIN3; test: competition; unlabeled 800-fold excess vs ORE1-EBS; LightShift Chemiluminescent EMSA kit binding buffer (composition, pH, temperature not given); 400 ng protein, 12.5 fmol 5'-biotin probe, 1 ug poly(dI-dC), 15 min; settings: protein: recombinant; tags: N-terminal MBP (pMAL-c5g); chain copies: 2; blunt
MBP-N-EIN3 [4] = target: T2, MBP-N-EIN3; test: competition; unlabeled 800-fold excess vs NYE1-EBS; LightShift Chemiluminescent EMSA kit binding buffer (composition, pH, temperature not given); 400 ng protein, 12.5 fmol 5'-biotin probe, 1 ug poly(dI-dC), 15 min; settings: protein: recombinant; tags: N-terminal MBP (pMAL-c5g); chain copies: 2; blunt
MBP-N-EIN3 [5] = target: T2, MBP-N-EIN3; test: competition; unlabeled 800-fold excess vs PAO-EBS; LightShift Chemiluminescent EMSA kit binding buffer (composition, pH, temperature not given); 400 ng protein, 12.5 fmol 5'-biotin probe, 1 ug poly(dI-dC), 15 min; settings: protein: recombinant; tags: N-terminal MBP (pMAL-c5g); chain copies: 2; blunt

B1: ACS2-OBS (dsDNA)
DNA 1: GGAATTATGTGGAGGACGTACGTTTATACATGTGCAGACTACAAC
DNA 2: GTTGTAGTCTGCACATGTATAAACGTACGTCCTCCACATAATTCC
MBP-ORE1
  binding result: binds

B2: NYE1-EBS (dsDNA)
DNA 1: GTTTAGGTAAGCAATACGAACCTGGATAAACGAAATGC
DNA 2: GCATTTCGTTTATCCAGGTTCGTATTGCTTACCTAAAC
MBP-N-EIN3 [1]
  binding result: binds

B3: NYC1-OBS (dsDNA)
DNA 1: GAGGTTGCTGTAACGTGTGGCCATCACAC
DNA 2: GTGTGATGGCCACACGTTACAGCAACCTC
MBP-ORE1
  binding result: binds

B4: NYC1-EBS (dsDNA)
DNA 1: TAATTTACTCAGGTACATAAGTAATGAC
DNA 2: GTCATTACTTATGTACCTGAGTAAATTA
MBP-N-EIN3 [1]
  binding result: binds

B5: NOL-OBS (dsDNA)
DNA 1: AGCTTGCTCGCTTACGCAACTCTCTCTCT
DNA 2: AGAGAGAGAGTTGCGTAAGCGAGCAAGCT
MBP-ORE1
  binding result: binds

B6: PAO-OBS (dsDNA)
DNA 1: ATTGCATACTTGCACGCAATCTCTTCTTC
DNA 2: GAAGAAGAGATTGCGTGCAAGTATGCAAT
MBP-ORE1
  binding result: binds

B7: NYE1-OBS (dsDNA)
DNA 1: GTGGTTTCAGTGTACGAACACGCAAGAACTC
DNA 2: GAGTTCTTGCGTGTTCGTACACTGAAACCAC
MBP-ORE1
  binding result: binds

B8: NYC1-EBSm (dsDNA)
DNA 1: TAATTTACTCAAAAAAAAAAGTAATGAC
DNA 2: GTCATTACTTTTTTTTTTGAGTAAATTA
MBP-N-EIN3 [2]
  binding result: no binding

B9: PAO-EBS (dsDNA)
DNA 1: GCTTGAAATAAGATTCATCAGAAGAGTA
DNA 2: TACTCTTCTGATGAATCTTATTTCAAGC
MBP-N-EIN3 [1]
  binding result: binds

B10: ORE1-EBSm (dsDNA)
DNA 1: ATACTTTACAAGGGTAATGCATGCATAC
DNA 2: GTATGCATGCATTACCCTTGTAAAGTAT
MBP-N-EIN3 [3]
  binding result: no binding

B11: NYE1-EBSm (dsDNA)
DNA 1: GTTTAGGTAAGCAATTTTTTTTTGGATAAACGAAATGC
DNA 2: GCATTTCGTTTATCCAAAAAAAAATTGCTTACCTAAAC
MBP-N-EIN3 [4]
  binding result: no binding

B12: PAO-EBSm (dsDNA)
DNA 1: GCTTGAAATAAAAAAAAACAGAAGAGTA
DNA 2: TACTCTTCTGTTTTTTTTTATTTCAAGC
MBP-N-EIN3 [5]
  binding result: no binding
